From the domain aggregation screens of Martell et al. (2025)

Assay: soluble fraction after stress (log2 fold change); higher = more stays soluble; pooled small domains, quantitative proteomics
Conditions: stress: 50 degC
Summary of the method: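 Quantitative proteomics served as the high-throughput read-out for pooled custom libraries of small protein domains. Each was stressed at 50°C. Aggregation propensity is expressed as the base-two log fold change in soluble protein after stress. A higher value means a larger share of the protein remains in solution.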

Going from “HMTNPPITTEARNLVVEQLKELNALHPEKARELADSYKKEFNVPKVIGHITEARHGEFLALAISKIDES” to “HMEVLSKRGSTGTEVINIQKKLKNWGYYTGSVDGIYGKLTEEAVRYFQRTNGLTVDGIAGKNTLAAMGIA”, the “soluble fraction (log2)” value falls from -0.144 to -0.356.

Compared with “HMIEYILDYLANRGVYAASQGEQQQMEDGIARYLQENGLEDGNTGAYYQKYVSNHLQQISASDLKAYFLN”, “HMGNIITQEAAVKLAQDRVPNATLVKIEYDFDDGRPVYEGELREGRWEYEFEIDAATGEFLKWEKD” is higher in “soluble fraction (log2)” value: -0.529 for the first, 0.04 for the second.

First: HMSHLTKKQEEVLLFIRDYYEEEGRSPSYSDIQHHFGLKSKSSVQDYIGYLKKAGFLQKSVGSRAIELV
Second: HMHMELHEKIRLARELNKWSQEEVAEKLEMSPSGYAKIERGETALNIPRLEQIAEIFNIDIWELVKA
The “soluble fraction (log2)” value of the first is lower: -2.05 for the first, -0.573 for the second.

“HMDRGDVTREALIKAAIEIFGRDGFHAASTRAIAERAGANQALIGYHFRGKLGLYHATFEYIIGKI” and “HMETTVSYSGVVTASVLRIRKGPSVSSSVAGTLKKGTGVSIIFEDNGWGKLADGSGWVSLTYIKKNSTP” are within 0.2 log units of each other in “soluble fraction (log2)” value: -0.315 for the first, -0.302 for the second.

“HMYEVVPNMKGLSYEQAATALRTAGLEPELSDSIYDDKTRPGTVLEQSPRANTKVKPGRTVYLTVNAF” and “HMDAGIVVPDTYNKPLAEAVASLEGEGFRTEKKEGYSDTVAKGNVMSQNPEAGTNAERGSTVTIVISQGPQ” are within 0.2 log units of each other in “soluble fraction (log2)” value: 0.0459 for the first, 0.0495 for the second.

Going from “HMNVAETITLGKRLFNHALTILGKKQRNISRKQLKNFLNDLGLKDSKDLYESIGTGDKNPILMAQLLLG” to “HMWKQISSEAELLPAVRSVIQANPGEAEKLRNGEMAPLEFLTGLVMKKTNGMAVPQIVKTLIKKELKI”, the “soluble fraction (log2)” value rises from -0.509 to 0.00479.

First: HMSESLRDLVLSLIPEDGSTIGNRALITRLREDLPDLTDEDYHEVRDQLIAEGVLAKGRGQGGSVARANG
Second: HMVDETDVPTFTDMTLEEAQNEAKQRNLKLEITESPSDKEKDTILEQDPEPGKTVASGSTVKLTVSNGEE
The “soluble fraction (log2)” value of the first is higher: 0.205 for the first, -0.14 for the second.

First: HMDEALLRATLLDVLVKHHPKIGDKLDVVFALAKAWVSSGSDDDFEVLEKYMERLKPDEALMLASGFSNML
Second: HMNSGFEVFREVVNQGSFIGAANALGISAPAVSKQIKLLENRLGLLLLYRTTRNVTLTDIGKQLFDTLDNS
The “soluble fraction (log2)” value of the first is higher: -0.972 for the first, -1.97 for the second.

Going from “HMPVYEEEVPAALDGQRLDRVVAMVTGLSRSEVGALLAAGAVTVDGTTPAKGSVRLAAGSIVSVTVS” to “HMEEVYVPDIRDKSISDAKKILSQMGLKYRIEGEGYDDSTVIKDQTPKPGALLAKDSVVIAYINE”, the “soluble fraction (log2)” value rises from -0.145 to 0.126.

Compared with “HMPAFGALTLRQRDLVELIAQGLDNSQIAARLGLAEKTVRNHITMIFNKLEMENRSQVIVRARESGFGAVR”, “HMNLQGIISQKAIVTQTIEPYETGVAKLNGEEWTAMSKDETRIEAGKLVEVVAIEGVKLIVKEVS” is higher in “soluble fraction (log2)” value: -1.53 for the first, -0.0794 for the second.

Going from “HMLEAKQIQDNWESLIKLIEDNFTGERKENLLKMYTHFQDRMMFAPASSKEHFHNAFPGGYVEHVL” to “HMSLEDMILSLSSRIRRGESLHFRELLVAIETKSGMVTIFMAVLELLKQQVMEMRYEDDDIIFT”, the “soluble fraction (log2)” value falls from -0.293 to -0.912.

Going from “HMIEQEQAFLEQVLKKYSQEELVLTVGSRTLVKYSAGQLERLLEHYPHVRLASSPVNGEAGFLLSRG” to “HMVYNGYYAKSFNGYVVILNGDEKTVYEYTQIPIHLLPEDIRSSVMSGYYLENETDLYNFLENYS”, the “soluble fraction (log2)” value falls from -0.0933 to -0.822.

“HMKTERTVRVQDQHLHYTLEEKPIKNVNLRIRPDGSVYVSAPFGTSRTLIDDFVASKSKQILAIQQAQSAM” and “HMDTSISHLVGRTGEAVTDLRPAGTVMIDGELYDARATEGFIEKGEIVKAIKYQYGQLNVRRVSK” are within 0.2 log units of each other in “soluble fraction (log2)” value: -0.0134 for the first, 0.0877 for the second.

Going from “HMPTMTDIPIKIIRSRRRTLAIEVREGGEVIVRAPLYSRKAEIDAFVKAHENWIITKYNLMITKQN” to “HMLNIVTIFEEQFGRPLSPIELNIIKDWKESDYSDEMIVKALKEAVKSQVLNFRYVEGILNNWAKNG”, the “soluble fraction (log2)” value rises from -1.74 to -0.568.

“HMDVPTSSITEVKKSPMDVFAQARKAETGVYIFNREKIAGVMLTKEQYEALVEELNTLRDTL” and “HMIRILIVDDSAFMRKLLSDVFEEDKNFVVVDTARNGQDAVEKVKRLKPDLVTMDVEMPVMDGLTAVEIIM” are within 0.2 log units of each other in “soluble fraction (log2)” value: -0.438 for the first, -0.36 for the second.

Going from “HMPERMLEPLLNGNEIMKVTQLQPGPKVGLIRDALLQAQISGDVTDTESAKAFVQDYAKRNI” to “HMGVREIIVQFLEQFDKPKSVQEIVEYVLRYRNTTENSIRSTMYSGSQFRQFDNGYFGLSDKSYPNEYIYA”, the “soluble fraction (log2)” value falls from 0.06 to -0.603.

“HMDTVSYSTLLRDIDAKEIKQLDLVPGRREVRVQYNDGRRVTVPVFANDNQILRAAESSGTPLTVV” and “HMPDPLYLINGKIVNKSDFNNIDPRSIQSIEVLKANKALEAFGNDGKNGVIKITLKSSNDQM” are within 0.2 log units of each other in “soluble fraction (log2)” value: 0.183 for the first, 0.0749 for the second.

“HMEYSTLEIYSQTKKDLIEKSPHLNKVVYDKDDGYIYLLSFEKEDDLTSFKSNIENDSDIKRIEANV” and “HMNYIGADAAKNMAAADAQVDTANASFSGANLGEKNGLSYYQVDFTANGREYHYAIDAMTGTVIESSSAAS” are within 0.2 log units of each other in “soluble fraction (log2)” value: 0.0917 for the first, 0.124 for the second.

Compared with “HMLYKNIAKKLRFRINSDEFAIGDVLPTERQLMEEYQASRVSIRKAIDELVAIDLIEKKQGSGTYIKQKEV”, “HMEFQSIGGKIRIGREREHLTQAELAQKLSVTRQAVSNWERDKTLPDIYMIREIAEIFGLTLDEFMEGAKK” is higher in “soluble fraction (log2)” value: -0.919 for the first, -0.672 for the second.

“HMRMLTKRRQDLLLELLEERGSITVSEVKDMLDASESTIRRDITALDEEGKLVKVFGGAVAAR” and “HMRQQSLHSLYRDHHSWLQNWLRRQLGNTWDAADLSQDTFIKVLASSQSVAEIREPRAYLLTVGKRL” are within 0.2 log units of each other in “soluble fraction (log2)” value: -0.272 for the first, -0.17 for the second.

Going from “HMGNLASGAYEQIKRRILSLEYLPGSILQERGLAEELGISRTPVREAIHRLSQEGWLKINSRKNIRVR” to “HMDRETEEYELIRAKLEWLYQKQTGTIRNQTAKILHHLEIAKEEGNYYLYLKIKEEAKQWLVQASMYLD”, the “soluble fraction (log2)” value rises from -1.98 to -0.231.

Compared with “HMLPISGDDRDALDMAALILKQYDSLPILKEFANVVTKLQTVLDGVVSNSIEARRQMIQFEE”, “HMTLVSALDQKTKDSAYYRGTYLAGKISAGKMTKQEAVADIMKNYDGNTAAMKVAAEKAGVSDLLSQTVL” is higher in “soluble fraction (log2)” value: -0.0336 for the first, 0.234 for the second.

First: HMFLDKDTLNQLYRFGIALTGNEQDSQDVLHTAIERFLRNKPQQINQQAAYIRTIMRNYWYDELRKLKTQ
Second: HMFETLVLALAQAWPAERGPVEALQFEGGRLSLQRSGFADEQVEALRQRLSSEGWTLQTEQGRLILNKAG
The “soluble fraction (log2)” value of the first is lower: -1.61 for the first, -0.884 for the second.

Compared with “HMIDIIEYIISEESKGLRADQGIALQNPQYSRSLIQKWIKKGSVLVNNKIIRTKEILLEGDKISITPEENI”, “HMDEVVVVERGGVQITMSEIDAKIMELPVDVRPSYLDSPERLQNFVSNLLLEKQAAQLKSQY” is higher in “soluble fraction (log2)” value: -0.384 for the first, -0.153 for the second.

Going from “HMTHPAHLARIGALIRSARQHEGLTQAQLAELLGTSQSAIHRIEQGGQNITLDMLTRISAALDSEIVTIG” to “HMRRSLIGPTVRERRRALGITQSRLAAEVGISASYLNLIEGDKRNIGGALLQRIAGALGLALD”, the “soluble fraction (log2)” value falls from -0.921 to -2.74.

First: HMYPEDMMSLMRRALRLINHLESNRKDRHNSRQLELTESKIRRLARYYKGRGLIETEWAYKRDQLRLLV
Second: HMQKADFDYGDYVDLGLAMGRQSRQLREAVGIKLGIGYANSKRFYQRLQTFGISLAELKQAVEEAENDQQN
The “soluble fraction (log2)” value of the first is higher: -0.398 for the first, -0.735 for the second.

“HMALPGESVYVSILQSGSNRDQGVGYLDDGTMVVVDGAIKDIGKSIEVVINKSHQTVAGKMLFAKKVA” and “HMIDYTDTSAVKDSAAVAGRVREMINEGVPIADVNAFIRSASENGLISDDSARRLRYMNDSR” are within 0.2 log units of each other in “soluble fraction (log2)” value: -0.0558 for the first, 0.0307 for the second.

First: HMHTGEVVNGKVIDVKEDQIILNVGFKSDGIITRSEYSNDNSLDLRTVVNVGDDMEAKVLKINDGEGQVLL
Second: HMEGRTVMATTAVNVRSGPGTSYKILGVLYPGHTAQQIGNTRYGWAQVTWKGHTAYIAARYLRDS
The “soluble fraction (log2)” value of the first is higher: -0.185 for the first, -2.41 for the second.

“HMQQSQLDDIKSVVGGDEGYNKLREWTQANVPDETLKAFDKILDTQDPTMIKVAVEGFAAQMRQAE” and “HMENPLETYYSQWVSAIKREHPEASFVKDTDGKYYVEGLTKNRLAVIYENPHLVRLVNATTNLHVE” are within 0.2 log units of each other in “soluble fraction (log2)” value: -0.36 for the first, -0.305 for the second.

Going from “HMPDITAAVARTLQALRADRGWSLDQLAARSGVSKGVLVALEQGRSNPNLATLARIGDAFGVPVTLLVDL” to “HMIQMRVKVPKNIAGGSLMGAHHFVKSALARTNPGGSTSNYKIQATDGTPLTLGDLTARQYDEVLIISG”, the “soluble fraction (log2)” value rises from -0.543 to 0.0101.

“HMEIETPEIRAIHDLLELLANKAKKPEQEQFVQAHPEVQWAKVEANKNGTFAVGKVKAYLKTLQA” and “HMQDRDKNVPAGKELLDNEIARLNMSLKQVEQFALPRYNLKTLEDLYSGIGSGDIRLNHLINFLQSKLI” are within 0.2 log units of each other in “soluble fraction (log2)” value: -0.308 for the first, -0.135 for the second.

Compared with “HMSKEDDSLVVTFRRMLLEEVDLHELSRIDANQRRARLERVIAHLVSREGVILSASERNQLVRRVVDEAV”, “HMEDSAKRHQIMDGARRVFMDLGFDGASMNEIARAAGVSKGTLYVYFTDKNRLFEAIVEQESL” is lower in “soluble fraction (log2)” value: -0.529 for the first, -1.37 for the second.
